How the values were obtained:
[1] = biological target: T1, HER2 (human epidermal growth factor receptor 2) on cells (human, UniProt P04626 23-1255); assay: flow cytometry (Cy5), SKOV-3 cells, 3.33 nM, 37 C, 24 h
T1 construct: whole, on cells; One molecule for HER2 on all HER2-positive human cell lines; also called ERBB2; HER2 WT

[2] = biological target: T1, HER2 (human epidermal growth factor …); assay: flow cytometry (Cy5), MDA-MB-231/HER2 cells, 3.33 nM, 37 C, 24 h
[3] = biological target: T1, HER2 (human epidermal growth factor …); assay: flow cytometry (Cy5), MDA-MB-231/HER2 cells, 0.5 h

| Binder | cellular association value (legend says percent; value exceeds 100, unit unclear) [3] | also measured |
| --- | --- | --- |
| Nanobody-PEG2-TCO-MePhTz-PEG4-PEG24-CO[N(PN)2][Lys]8[(α-NH-Cy5)1(α-NH-Glu-VC-PAB-MMAE)7(ε-NH-COPEG1100)8], Compound 41 (VHH, C-terminal unnatural amino acid (# in the printed sequence; p-azido-phenylalanine) clicked to DBCO-PEG12-TCO and through it to the tetrazine G3 lysine dendrimer carrying Cy5, Glu-VC-PAB-MMAE and PEG1100, Anti-HER2 nanobody 2D3 conjugated to a G3 dendrimer; also called compound 41 (targeted); targeted dendrimer) VHH: EVQLVESGGSLVQPGGSLRLSCAASGFTFDDYAMSWVRQVPGKGLEWVSSINWSGTHTDYADSVKGRFTISRNNANNTLYLQMNSLKSEDTAVYYCAKNWRDAGTTWFEKSGSAGQGTQVTVSS |  | fold fluorescence against compound 36 (untargeted control) [1]: ~16 fold; fold fluorescence against compound 36 (untargeted control) [2]: ~9 fold |
| BHA[Lys]4[((α-NH-COPEG24NH-COPEG4(PhMeTz) TCO-PEG3NH-COPEG24NH-Glu-DBCO N3-Nanobody)1(α-Lys(α-NHCy5)(ε-NHDFO))1(α-NH2)2)(ε-NH-COPEG1000)4, G2, Compound 86 (VHH, unnatural amino acid (#; p-azido-phenylalanine) clicked to DBCO-Glu-NHPEG24CO-NHPEG3-TCO and through it to the tetrazine G2 BHA-lysine dendrimer carrying Cy5, DFO and PEG1000, Single-nanobody G2 conjugate; also called BHA-G2-PEG1000 + NB) VHH: EVQLVESGGSLVQPGGSLRLSCAASGFTFDDYAMSWVRQVPGKGLEWVSSINWSGTHTDYADSVKGRFTISRNNANNTLYLQMNSLKSEDTAVYYCAKNWRDAGTTWFEKSGSAGQGTQVTVSS | 190 |  |
| BHA[Lys]8[((α-NH-COPEG24NH-COPEG4(PhMeTz) TCO-PEG3NH-COPEG24NH-Glu-DBCO/N3-Nanobody)1(α-Lys(α-NHCy5)(ε-NHDFO))1(α-NH2)6)(ε-NH-COPEG1000)8], G3, Compound 89 (VHH, unnatural amino acid (#; p-azido-phenylalanine) clicked to DBCO-Glu-NHPEG24CO-NHPEG3-TCO and through it to the tetrazine G3 BHA-lysine dendrimer carrying Cy5, DFO and PEG1000, Single-nanobody G3 conjugate; also called BHA-G3-PEG1000 + NB) VHH: EVQLVESGGSLVQPGGSLRLSCAASGFTFDDYAMSWVRQVPGKGLEWVSSINWSGTHTDYADSVKGRFTISRNNANNTLYLQMNSLKSEDTAVYYCAKNWRDAGTTWFEKSGSAGQGTQVTVSS | 218 |  |
| BHA[Lys]16[((α-NH-COPEG24NH-COPEG4(PhMeTz) TCO-PEG3NH-COPEG24NH-Glu-DBCO/N3-Nanobody)1(α-Lys(α-NHCy5)(ε-NHDFO))1(α-NH2)14(ε-NH-COPEG1000)16], G4, Compound 90 (VHH, unnatural amino acid (#; p-azido-phenylalanine) clicked to DBCO-Glu-NHPEG24CO-NHPEG3-TCO and through it to the tetrazine G4 BHA-lysine dendrimer carrying Cy5, DFO and PEG1000, Single-nanobody G4 conjugate; also called single 2D3-dendrimer conjugate; MFI Single) VHH: EVQLVESGGSLVQPGGSLRLSCAASGFTFDDYAMSWVRQVPGKGLEWVSSINWSGTHTDYADSVKGRFTISRNNANNTLYLQMNSLKSEDTAVYYCAKNWRDAGTTWFEKSGSAGQGTQVTVSS | 157 |  |
| BHA[Lys]32[((α-NH-COPEG24NH-COPEG4(PhMeTz) TCO-PEG3NH-COPEG24NH-Glu-DBCO/N3-Nanobody)1(α-Lys(α-NHCy5)(ε-NHDFO))1(α-NH2)30(ε-NH-COPEG1100)32], G5, Compound 92 (VHH, unnatural amino acid (#; p-azido-phenylalanine) clicked to DBCO-Glu-NHPEG24CO-NHPEG3-TCO and through it to the tetrazine G5 BHA-lysine dendrimer carrying Cy5, DFO and PEG, Single-nanobody G5 conjugate; also called BHA-G5-PEG1000 + NB) VHH: EVQLVESGGSLVQPGGSLRLSCAASGFTFDDYAMSWVRQVPGKGLEWVSSINWSGTHTDYADSVKGRFTISRNNANNTLYLQMNSLKSEDTAVYYCAKNWRDAGTTWFEKSGSAGQGTQVTVSS | 165 |  |
| BHA[Lys]32[((α-NH-COPEG24NH-COPEG4(PhMeTz) TCO-PEG3NH-COPEG24NH-Glu-DBCO/N3-Nanobody)1-4(α-NHCy5)1(α-NH-COPEG9-Val-Ala-PAB-P-Trigger-NMeCO-CTX)22) (α-NH2)5-8 … (VHH, unnatural amino acid (# in the printed sequence; p-azido-phenylalanine) after the last nanobody residue clicked to DBCO-Glu-NHPEG24CO-NHPEG3-TCO and through it to the tetrazine G5 BHA-lysine dendrimer carrying Cy5, cabazitaxel and PEG1100, 1-4 nanobodies per dendrimer as printed; also called compound 78 (targeted); 78 (2D3, G5, PEG1000, CTX)) VHH: EVQLVESGGSLVQPGGSLRLSCAASGFTFDDYAMSWVRQVPGKGLEWVSSINWSGTHTDYADSVKGRFTISRNNANNTLYLQMNSLKSEDTAVYYCAKNWRDAGTTWFEKSGSAGQGTQVTVSS |  | fold fluorescence against compound 70 (untargeted control) [1]: ~160 fold; fold fluorescence against compound 70 (untargeted control) [2]: ~340 fold |

Source: patent publication US20220288216A1 (STARPHARMA, published 2022)
